For the experiment, the target named is Cys-HLA (Staphylococcus aureus).

B1: Bm28H12 (VHH)
VHH: QVQLVESGGSVVQAGGSLRLSCTASGRNFNSYAMGWFRRPPGEQRDFIAAIIRSTGKTTYADSDSVKGRFTISKDSSGNTVYLQMNNLKPEDTAIYYCAGGDAGPYAFGYDYWGQGTQVTVSS
A word on the Kd: it is the constant that tells how readily two partners part at equilibrium. A lower Kd goes with higher affinity. As for B1, the Kd stood at 0.1 nM.

These data come from US20260226142A1.
